The test system of this assay is PPIs identified as affected by the SH3 domain deletions. Briefly: Liquid DHFR-PCA low-throughput validation of PPIs affected by SH3 deletion (Fig. S1D-E). Type of assay: cell-based, Saccharomyces cerevisiae. Conditions: label = prey, liquid DHFR-PCA, prey _1 = lost, _2 = gained in screen. The protocol:
Liquid DHFR-PCA low-throughput experiments were performed to validate the PPIs identified as affected by the SH3 domain deletions in the high-throughput solid DHFR-PCA screen (256 PPIs weaker or lost and 116 PPIs stronger or gained following domain deletions). Mating and the diploid selection were performed as described for the large-scale experiment, with the exception that the plates were in 384 formats. Following the second diploid selection, diploid cells were inoculated in a 96 v-shaped well plate using a robotically manipulated 96 pin tool in a synthetic complete medium with MSG at pH 6.0 with NAT and HPH. After 48 h of growth, optical density (OD) was read using a TECAN Infinite F200 Pro, and dilutions to 1 OD in sterile nanopure water were prepared. Cells were then diluted to 0.1 OD by combining 25 µl of cell suspension at OD = 1 and 225 µl of PCA selection media without agar in a 96-wells plate. Plates were incubated at 30 °C in a TECAN Infinite M Nano and OD was monitored each 15 min for 72 h.

B1: YFR024C-A_1 (protein, UniProt P43603 1-459, looked up)
LAS seventeen-binding protein …: MGINNPIPRSLKSETKKAAKILASFVKPNQVFGADQVIPPDVLKRAKGLAIITILKAGFLFSGRAGSGVIVARLKDGTWSAPSAIAMAGAGAGGMVGIELTDFVFILNTQDAVKSFSEFGTITLGGNVSVSAGPLGRSAEAAASASAGGVAAVFAYSKSKGLFAGVSVEGSAIIERREANRKFYGDNCTAKMILSGRIRPPPAVDPLFRVLESRAFNYRPSNGGRGSFDDDEDDYYDDDDYYNDIPSSFSSTDASSTRPNTRSTRRRAQSGSRYTFDDDDDDDDYGTGYSRNSRLAPTNSGGSGGKLDDPSGASSYYASHRRSGTAQSRARSSRNRWADDEYDDYDDDYESGYRRGNGRDRTKDREVDDLSNRFSKSRISSASTPQTSQGRFTAPTSPSTSSPKAVALYSFAGEESGDLPFRKGDVITILKKSDSQNDWWTGRVNGREGIFPANYVELV
For the molecule B1, the “Ratio (Deletedscore / WTscore)” value by setting is: (bait BBC1) 0.507; (bait BZZ1-1) 0.736; (bait HOF1) 1.194; (bait MYO3) 0.7743; (bait MYO5) 0.8345; (bait RVS167) 0.8585.

B2: YFL010C_1 (protein, UniProt P43582 1-211, looked up)
WW domain-containing protein …: MAQSKSNPPQVPSGWKAVFDDEYQTWYYVDLSTNSSQWEPPRGTTWPRPKGPPPGVNNEKSSRQQADQAPPPYSSQSTPQVQAGAQAQQPRYYQPQQPQYPQYPQQQRYYPQQAPMPAAAPQQAYYGTAPSTSKGSGHGGAMMGGLLGVGAGLLGGAMLEHAFDDHNYDGPDTVVVENNYYGDDAGGSDGGFDDAGGFDGGFDDGFDGSDF
For B2, the “Ratio (Deletedscore / WTscore)” value (bait BBC1) is on record as 0.6877.

B3: YPR055W_1 (protein, UniProt P32855 1-1065, looked up)
Exocyst complex component SEC8: MDYLKPAQKGRRRGLSINSLSETQQSAMNSSLDHLQNDLNRINLQWNRILSDNTNPLELALAFLDDTSVGLGHRYEEFNQLKSQIGSHLQDVVNEHSQVFNTNVASYGKAVSSIMQAQEQTLNLKNCLKEANEKITTDKGSLQELNDNNLKYTKMIDVLVNIEELLQIPEKIEENIRKENFHQVQILLERGFILMNNKSLKTVEILKPINQQLELQEHLLFNNLIEEIHDIMYSKSNKTNFTRVTNNDIFKIISISHNGFTSLENYLYNIVNIDIMEHSKTINKNLEQFIHDQSLNKGNIMLQENAATQAPLAPSRNQENEGFNRIGFLLKTINNINKLPVAFNIITERAKEEIHNIIVKSTESIRSKHPSLLKMATSLKNDNHFGLPVQDILSIILRECFWEIFLKLLYAIQCHRAIFEMSNILQPTSSAKPAFKFNKIWGKLLDEIELLLVRYINDPELISSNNGSIKPINGATNNAPTLPKRKNPKIFSLEYNIEDNSSVKDQAFELKALLKDIFPGFSVSSNMDLDSIYVKDESFEQDEPLVPPSVFNMKVILDPFLLFTQSTSTIVPSVLTQNTISSLTFFDDYMNKSFLPKIQMTMDYLFTVEVESNNPYALELSDENHNIFKTALDFQRLFYNLLNVFNTANTFREKISYCILDLLNHFYNYYLGLFNSLIGTSDRHLTRKIITAWLQNGILMDQEQKILNGDETLFHEESIELFKEIPHFYQAGKGLSKSDLFNNLTLDTILQFSASVLWILNWLPGLKKAINIDEVSQEPMLDADRLRSSWTFSESMDLNYSNPSSSPNSLGNLKILLDDKASKKFDETIDGFKTLKFKLITILRFNIRALCIYDIGSFFQNTKIWNMDVGSIELDQNIASLISELRRTESKLKQQLPEKEKNSIFIGLDIVNNYALIKGAKSIKVLNHNGIKKMLRNVNVLQHAYRNLSSEPSKINMNVTMNFYSLCGSSEAELFEYIKDNELPHCSVEDLKTILRLQFSEEMHRQLKRQSTSSTKGSIKPSNKRYTEALEKLSNLEKEQSKEGARTKIGKLKSKLNAVHTANEK
B3: the “Ratio (Deletedscore / WTscore)” value came to 0.936 (bait ABP1), 1.037 (bait BEM1-1), 0.6358 (bait BEM1-2) and 0.783 (bait LSB3).

B4: YGR229C_1 (protein, UniProt P32566 1-505, looked up)
Cell wall assembly regulator …: MDLFKRKVKEWVYSLSTDDHYAEYNPDETPTFNMGKRLNSNNGQVNPSQMHLNSVDEEMSMGFQNGVPSNEDINIDEFTSTESNDGVSETLLAWRHIDFWTSEHNPDLNATLSDPCTQNDITHAEEDLEVSFPNPVKASFKIHDGQEDLESMTGTSGLFYGFQLMTLDQVVAMTQAWRNVAKNLNKRSQQGLSHVTSTGSSSSMERLNGNKFKLPNIPDQKSIPPNAVQPVYAHPAWIPLITDNAGNHIGVDLAPGPNGKYAQIITFGRDFDTKFVIAENWGEFLLSFANDLEAGNWYLVDDNDDYFSGDGELVFRDKKSNGPIQDYFEVLKRRTWIKYQENLRSQQQKSQPDTSLQEQKYVPASQKKVAAEQPSTLNAESIKGEDSGSADVQSVQDHESVKIVKTEPSEAETTTVNTESLGQAEHEIKADNVDIKQESERKEDEKQPKVEEKEHVENEHVTESAKKDDDVNKQTEEMNKKEENEIRSDDAKVEEAREEFENIAL
Regarding B4, the “Ratio (Deletedscore / WTscore)” value was determined as 0.6664 (bait BBC1) and 0.1513 (bait BEM1-1).

B5: YBL007C_1 (protein, UniProt P32790 1-1244, looked up)
Actin cytoskeleton-regulatory …: MTVFLGIYRAVYAYEPQTPEELAIQEDDLLYLLQKSDIDDWWTVKKRVIGSDSEEPVGLVPSTYIEEAPVLKKVRAIYDYEQVQNADEELTFHENDVFDVFDDKDADWLLVKSTVSNEFGFIPGNYVEPENGSTSKQEQAPAAAEAPAATPAAAPASAAVLPTNFLPPPQHNDRARMMQSKEDQAPDEDEEGPPPAMPARPTATTETTDATAAAVRSRTRLSYSDNDNDDEEDDYYYNSNSNNVGNHEYNTEYHSWNVTEIEGRKKKKAKLSIGNNKINFIPQKGTPHEWSIDKLVSYDNEKKHMFLEFVDPYRSLELHTGNTTTCEEIMNIIGEYKGASRDPGLREVEMASKSKKRGIVQYDFMAESQDELTIKSGDKVYILDDKKSKDWWMCQLVDSGKSGLVPAQFIEPVRDKKHTESTASGIIKSIKKNFTKSPSRSRSRSRSKSNANASWKDDELQNDVVGSAAGKRSRKSSLSSHKKNSSATKDFPNPKKSRLWVDRSGTFKVDAEFIGCAKGKIHLHKANGVKIAVAADKLSNEDLAYVEKITGFSLEKFKANDGSSSRGTDSRDSERERRRRLKEQEEKERDRRLKERELYELKKARELLDEERSRLQEKELPPIKPPRPTSTTSVPNTTSVPPAESSNNNNSSNKYDWFEFFLNCGVDVSNCQRYTINFDREQLTEDMMPDINNSMLRTLGLREGDIVRVMKHLDKKFGRENIASIPTNATGNMFSQPDGSLNVATSPETSLPQQLLPQTTSPAQTAPSTSAETDDAWTVKPASKSESNLLSKKSEFTGSMQDLLDLQPLEPKKAAASTPEPNLKDLEPVKTGGTTVPAAPVSSAPVSSAPAPLDPFKTGGNNILPLSTGFVMMPMITGGDMLPMQRTGGFVVPQTTFGMQSQVTGGILPVQKTGNGLIPISNTGGAMMPQTTFGAAATVLPLQKTGGGLIPIATTGGAQFPQTSFNVQGQQQLPTGSILPVQKTANGLISANTGVSMPTVQRTGGTMIPQTSFGVSQQLTGGAMMTQPQNTGSAMMPQTSFNAVPQITGGAMMPQTSFNALPQVTGGAMMPLQRTGGALNTFNTGGAMIPQTSFSSQAQNTGGFRPQSQFGLTLQKTGGIAPLNQNQFTGGAMNTLSTGGVLQQQQPQTMNTFNTGGVMQELQMMTTFNTGGAMQQPQMMNTFNTDGIMQQPQMMNTFNTGGAMQQPQQQALQNQPTGFGFGNGPQQSRQANIFNATASNPFGF
As to B5, the “Ratio (Deletedscore / WTscore)” value is, setting by setting: (bait BBC1) 0.5353; (bait LSB1) 0.9074; (bait MYO3) 0.6734; (bait MYO5) 0.8649; (bait PIN3) 0.824.

The values are drawn from PMC7954794, “Protein context shapes the specificity of SH3 domain-mediated interactions in vivo” (Nature Communications, 2021).
